We go through 4 molecules from publication PMC9279154 (Nature, 2022).

Sequences and labels used below:
B2: Dcr-2(D1217N/D1476N), catalytically inactive mutant (enzyme, Drosophila melanogaster, UniProt A1ZAW0 1-1722, looked up)
chain: MEDVEIKPRGYQLRLVDHLTKSNGIVYLPTGSGKTFVAILVLKRFSQDFDKPIESGGKRALFMCNTVELARQQAMAVRRCTNFKVGFYVGEQGVDDWTRGMWSDEIKKNQVLVGTAQVFLDMVTQTYVALSSLSVVIIDECHHGTGHHPFREFMRLFTIANQTKLPRVVGLTGVLIKGNEITNVATKLKELEITYRGNIITVSDTKEMENVMLYATKPTEVMVSFPHQEQVLTVTRLISAEIEKFYVSLDLMNIGVQPIRRSKSLQCLRDPSKKSFVKQLFNDFLYQMKEYGIYAASIAIISLIVEFDIKRRQAETLSVKLMHRTALTLCEKIRHLLVQKLQDMTYDDDDDNVNTEEVIMNFSTPKVQRFLMSLKVSFADKDPKDICCLVFVERRYTCKCIYGLLLNYIQSTPELRNVLTPQFMVGRNNISPDFESVLERKWQKSAIQQFRDGNANLMICSSVLEEGIDVQACNHVFILDPVKTFNMYVQSKGRARTTEAKFVLFTADKEREKTIQQIYQYRKAHNDIAEYLKDRVLEKTEPELYEIKGHFQDDIDPFTNENGAVLLPNNALAILHRYCQTIPTDAFGFVIPWFHVLQEDERDRIFGVSAKGKHVISINMPVNCMLRDTIYSDPMDNVKTAKISAAFKACKVLYSLGELNERFVPKTLKERVASIADVHFEHWNKYGDSVTATVNKADKSKDRTYKTECPLEFYDALPRVGEICYAYEIFLEPQFESCEYTEHMYLNLQTPRNYAILLRNKLPRLAEMPLFSNQGKLHVRVANAPLEVIIQNSEQLELLHQFHGMVFRDILKIWHPFFVLDRRSKENSYLVVPLILGAGEQKCFDWELMTNFRRLPQSHGSNVQQREQQPAPRPEDFEGKIVTQWYANYDKPMLVTKVHRELTPLSYMEKNQQDKTYYEFTMSKYGNRIGDVVHKDKFMIEVRDLTEQLTFYVHNRGKFNAKSKAKMKVILIPELCFNFNFPGDLWLKLIFLPSILNRMYFLLHAEALRKRFNTYLNLHLLPFNGTDYMPRPLEIDYSLKRNVDPLGNVIPTEDIEEPKSLLEPMPTKSIEASVANLEITEFENPWQKYMEPVDLSRNLLSTYPVELDYYYHFSVGNVCEMNEMDFEDKEYWAKNQFHMPTGNIYGNRTPAKTNANVPALMPSKPTVRGKVKPLLILQKTVSKEHITPAEQGEFLAAITASSAADVFDMERLEILGNSFLKLSATLYLASKYSDWNEGTLTEVKSKLVSNRNLLFCLIDADIPKTLNTIQFTPRYTWLPPGISLPHNVLALWRENPEFAKIIGPHNLRDLALGDEESLVKGNCSDINYNRFVEGCRANGQSFYAGADFSSEVNFCVGLVTIPNKVIADTLEALLGVIVKNYGLQHAFKMLEYFKICRADIDKPLTQLLNLELGGKKMRANVNTTEIDGFLINHYYLEKNLGYTFKDRRYLLQALTHPSYPTNRITGSYQELEFIGNAILDFLISAYIFENNTKMNPGALTDLRSALVNNTTLACICVRHRLHFFILAENAKLSEIISKFVNFQESQGHRVTNYVRILLEEADVQPTPLDLDDELDMTELPHANKCISQEAEKGVPPKGEFNMSTNVDVPKALGDVLEALIAAVYLDCRDLQRTWEVIFNLFEPELQEFTRKVPINHIRQLVEHKHAKPVFSSPIVEGETVMVSCQFTCMEKTIKVYGFGSNKDQAKLSAAKHALQQLSKCDA
notes: Dicer-2 (Dcr-2), Drosophila melanogaster, UniProt A1ZAW0, full length with D1217N and D1476N; also called Dcr-2(DDNN); Dcr-2^DDNN; source: sf9 cells (Bac-to-Bac baculovirus), purified (Ni-NTA, Hitrap Q, 2nd Ni-NTA, SEC)

Series [1] deals with Dcr-2 delta-dsRBD;Loqs-PD (Drosophila melanogaster;Drosophila …, UniProt A1ZAW0;Q9VJY9-4 1-1628;1-359, |). The experiment in a line: cryo-EM; ATP, Mg2+; no further dsRNA bending; Cryo-EM and EMSA buffers not given in the material; with or without ATP and Mg2+. Conditions: protein: recombinant;recombinant; tags: Ni-NTA purified;6xHis-SUMO removed by ULP1; copies: 1;1; 3' overhang 2 nt (UU) at both ends; 50 bp; self-complementary, 2 copies of one strand. (In general: A gel shift assay detects complexes by their altered migration in electrophoresis.)

The target in the next series is Dcr-2 DDNN;Loqs-PD (Drosophila melanogaster;Drosophila …, UniProt A1ZAW0;Q9VJY9-4 1-1722;1-359, D1217N;D1476N|). Nature of the series: cryo-EM; no ATP; initial binding state, dimer, 3.1 A; Cryo-EM and EMSA buffers not given in the material; with or without ATP and Mg2+. Conditions: protein: recombinant;recombinant; tags: Ni-NTA purified;6xHis-SUMO removed by ULP1; copies: 1;1; 3' overhang 2 nt (UU) at both ends; 50 bp; self-complementary, 2 copies of one strand.

Another series has as its target Dcr-2 WT;Loqs-PD (Drosophila melanogaster;Drosophila …, UniProt A1ZAW0;Q9VJY9-4 1-1722;1-359, |). Nature of the series: cryo-EM; ATP, Mg2+; post-dicing state, RNA cleaved 21 bp from terminus, 4.6 A; Cryo-EM and EMSA buffers not given in the material; with or without ATP and Mg2+. Conditions: protein: recombinant;recombinant; tags: Ni-NTA purified;6xHis-SUMO removed by ULP1; copies: 1;1; 3' overhang 2 nt (UU) at both ends; 50 bp; self-complementary, 2 copies of one strand.

Series [2] deals with the molecule itself. The experiment in a line: cryo-EM structure; Dcr-2^DDNN–Loqs-PD with 50 bp dsRNA, without ATP: initial dsRNA-binding state (dimer), 3.1 Å.
Series [3] has as its target T1, Drosophila melanogaster Dicer-2 (Dcr-2), wild type (Drosophila melanogaster, UniProt A1ZAW0 1-1722).
T1 construct: Dicer-2 (Dcr-2), Drosophila melanogaster, UniProt A1ZAW0, full length; The pull-down methods call it 'untagged Dcr-2'; also called WT Dcr-2; Dcr-2^WT; source: sf9 cells (Bac-to-Bac baculovirus), purified (Ni-NTA, Hitrap Q, 2nd Ni-NTA, SEC)
Nature of the series: pull-down; 1.25 μM His-tagged Loqs-PD and 0.6 μM untagged Dcr-2 mixed on ice for 30 min, then Ni-NTA agarose; 200 mM NaCl, 20 mM Tris pH 8.0, 5% glycerol, 20 mM imidazole, 4 °C, 1 h; SDS–PAGE. Conditions: both partners purified.

Series [4] has as its target T1, Drosophila melanogaster Dicer-2 …. The experiment in a line: cryo-EM structure; Dcr-2^DDNN–Loqs-PD in the apo state (no dsRNA, no ATP); Dcr-2^DDNN–Loqs-PD with 50 bp dsRNA, ATP and Mg2+ (early-translocation, mid-translocation and active dicing states); WT Dcr-2–Loqs-PD with 50 bp dsRNA, ATP and Mg2+ (post-dicing state). Conditions: both partners purified.
Series [5] deals with B2. Nature of the series: cryo-EM structure; Dcr-2^DDNN–Loqs-PD with 50 bp dsRNA, without ATP: initial dsRNA-binding state (dimer), 3.1 Å. Conditions: both partners purified.

B1: 50 bp palindromic dsRNA (dsRNA)
RNA 1: GAGACUUGGGCAAUGUGACUGCUGAUCAGCAGUCACAUUGCCCAAGUCUCUU
RNA 2: GAGACUUGGGCAAUGUGACUGCUGAUCAGCAGUCACAUUGCCCAAGUCUCUU
modifications: 5'-monophosphate on both strands
As to B1, the binding result (in series [1]; in the series with Dcr-2 DDNN;Loqs-PD; with Dcr-2 WT;Loqs-PD) was “binds” throughout. As for B2, the stoichiometry N (as a rule, the number of molecules, sites or subunits per partner or assembly) in series [2] was 2.

B3: His-tagged Loqs-PD, wild type (natural protein, Drosophila melanogaster, UniProt Q9VJY9-4 1-359, looked up)
chain: MDQENFHGSSLPQQLQNLHIQPQQASPNPVQTGFAPRRHYNNLVGLGNGNAVSGSPVKGAPLGQRHVKLKKEKISAQVAQLSQPGQLQLSDVGDPALAGGSGLQGGVGLMGVILPSDEALKFVSETDANGLAMKTPVSILQELLSRRGITPGYELVQIEGAIHEPTFRFRVSFKDKDTPFTAMGAGRSKKEAKHAAARALIDKLIGAQLPESPSSSAGPSVTGLTVAGSGGDGNANATGGGDASDKTVGNPIGWLQEMCMQRRWPPPSYETETEVGLPHERLFTIACSILNYREMGKGKSKKIAKRLAAHRMWMRLQETPIDSGKISDSICGELEGEVSIIQDIDRYEQVSKDFEFIKI
notes: Loquacious-PD (Loqs-PD), Drosophila melanogaster, UniProt M9MRT5, full length; The only construct described is in a modified pET28a with a 6×His-SUMO tag; also called WT; source: E. coli BL21 (DE3), purified
With B3, the binding result in series [3] was “binds”.

B4: Drosophila melanogaster Loquacious-PD (Loqs-PD), full length, tag removed (natural protein, UniProt Q9VJY9-4 1-359, looked up)
chain: MDQENFHGSSLPQQLQNLHIQPQQASPNPVQTGFAPRRHYNNLVGLGNGNAVSGSPVKGAPLGQRHVKLKKEKISAQVAQLSQPGQLQLSDVGDPALAGGSGLQGGVGLMGVILPSDEALKFVSETDANGLAMKTPVSILQELLSRRGITPGYELVQIEGAIHEPTFRFRVSFKDKDTPFTAMGAGRSKKEAKHAAARALIDKLIGAQLPESPSSSAGPSVTGLTVAGSGGDGNANATGGGDASDKTVGNPIGWLQEMCMQRRWPPPSYETETEVGLPHERLFTIACSILNYREMGKGKSKKIAKRLAAHRMWMRLQETPIDSGKISDSICGELEGEVSIIQDIDRYEQVSKDFEFIKI
notes: Loquacious-PD (Loqs-PD), Drosophila melanogaster, UniProt M9MRT5, full length (C-terminal residue Ile359); also called DmLoqs-PD; Loqs-PD^FL; source: E. coli BL21 (DE3), purified (Ni-NTA, ULP1 cleavage, 2nd Ni-NTA, SEC)
As to B4, the binding result in series [4] and in series [5] was “binds” in each case.
